In patent US20200270586A1 (PROMEGA, published 2020):

Target: T1, LgTrip 3092 (SEQ ID NO: 19)
T1 construct: also called LgTrip 3092 His; ATG 3092
Experiment: tripartite luminescence complementation (with pep86 as third part)

## GSMLFRVTINS [SmTrip9 pep245]
  binding result: binds
